Experimental data reported in the DeepSol protein solubility set.

Assay: soluble on expression in E. coli; label from the status in PepcDB or PDB records

| Sequence | soluble on expression in E. coli |
| --- | --- |
| MKSQLRKKTLEALSALSNEDILQKTERMYKYLFSLPEWQNAGTIAVTISRGLEIPTRPVIEQAWEEGKQVCIPKCHPDTKKMQFRTYQTDDQLETVYAGLLEPVIEKTKEVNPSQIDLMIVPGVCFDVNGFRVGFGGGYYDRYLSEYEGKTVSLLLECQLFAHVPRLPHDIPVHKLITEDRIISCFSLEHHHHHH | soluble |
| MKFLTVSDDMNFLRQVNTLVAGKGDMDSVIIGEGDAKGLGSKVLYRAKKGTPFDAVSEGILKIAGNYDYIAIGSTEVGREIAGYLSFKTGFYTATEIFSLEFNGQKAHTKRFFYGGKTVIEEESDARILTVAPGVIEAKDLGTTPEIRDLEIGQSRIKITKFVSKAGGSVRLEDAKVIVSVGRGIGSKENIAKIEPLAKALNGEIAGSRPVCMDYGWLSEDRQVGLSGKKVSPKVYIALGISGQIQHIAGMRNSKTVIAINKDKNAPIFQECDYGIVGDLFTVVPKILEQLKQ | not soluble |
| MLEESKNALRVFITGNPGVGKTTILLFLINKLSENNYKVAGFYCPEVRENGRRIGFRIVDITTNEGDWLAKENAPGRVKIGKYTVLEDSAKRITEITLSNINKADVLAIDEIGPMELKIPTIKKLIETILNNQKPLIAVLHRTQKPMGGRIYVITVENRDSIKYEILNYILSSLD | soluble |
| MNHTSFRAIVVNETENHQFVRKVVEREVSSLPEGDVFIQVHYSSLNYKDALSATGNKGVTRTYPHTPGIDAAGVVVSSEDATIKAGDQVIVTGYDLGMNTSGGFGEYIRVPSSWVVPLPEGMSLKESMMYGTAGFTAALSVYKLIGAGVKPSMGDVLVTGATGGVGSVAVSILSKLGFNVVGATGKMEEEDMLLRLGAKKVIHRAELNDESGSPMLKGIYAGVIDTVGGHMLETALKTVKYGGCVTTCGNVAGQELQTTVYPFILRGISLLGIDSVQCPVDVRRDVWTLLAKEWGNKELLSYTEECTLEELEKKFALILQGKLKGRTVVKI | not soluble |
| MKQLTILGSTGSIGNSTLSVVRANPELFKVTALVAGRNVREMAQQCLEFSPRYAAMSDEHSAKSLRLLLAEQGSDTEVYSGETAACELAALDDVDQVMAAIVGIAGLPSTLAAIRAGKQVLLANKESLITCGKLFMDEVKRSRAQLLPIDSEHNAIFQSLPERIQRQLGYSSLNENGVSRIILTGSGGPFRETPLSQFSDVTPDQACAHPNWSMGRKISVDSATMMNKGLEYIEARWLFNASAEQIEVVLHPQSVIHSMVRYHDGSILAQMGTPDMRTPIAHAMAYPMRVSSGVAPLDFCKVGALTFTTPDYQRYPCLKLAIDACNAGQAATTALNAANEISVMAFLDSKIRFTDIEVINRTVVEGLLLSEPTSVEEVLVIDRKARDVAAQVIAKLNN | not soluble |
| MSLKATSSDDKVTFHALNGDVKVPKNPKRIAVQNYPDEVASLGANVVGTDSWAFPNTFLSKDQKKNMVDLGAPKFNMEKLIAQNPDLIITVDKDQVADYQKVAPTVLVNYKDLSGMNKSLDYFAKLLNREDEKASFLKNFKKEADKQKEKLAKVDVKPAKNTISLLELQGDKVYAFGDNFARGGQALTTGLGFKESSKMAELSKGVGYAEVNTESLGEFDADYIFIDFADKDKEQYAALKNNPAWQNLKAVKEGHVITMDYDKVYFFGGPTAAKEELSLYTDAIIKATKEGHHHHHH | soluble |
| MGSDKIHHHHHHMSTELRRVTYGNHGVARLTPAPDKPGTYMGMPKFSKAVKGELNLSVQRKNMRNATMTIRNKRAMRVSESPDWQDLRDAAESIKNRVGRHLDHYLVEAEKNLTANGVHVHWARDGEEANRIVAQIAKDKGVDEVVKIKSITSQETDLNEYLEEQGIAAWETDLAELIVQLGHDRPSHIVVPAIHRNRAEVREIFLHEMKNYGRPAPEDISENPPELTNAARLHLREKFLRAEMAVSGGNFVLADTGSLVIVESEGNGRMCLTLPDTLVSIVGIEKVLPSFDDLEVFLKLLPRSATGERMNPYNSVWSGVTDGDGPQEQHVIFLDNGRTDVLADTLGREVLRCIRCASCINICPVYERAGGHAYGSVYPGPIGAVLNPQLRGVEHPVDRGLPYACSLCGACNEVCPVKIPFTDILLKLRNKVVKSEKADRIPQDYEVAGEMGLMKTASWAFSDHKHFEAIQVGSRGVGRVLRGKKMGPVPVPVAERWLKYRDVDAPPADTFRTWWKKNREAQR | not soluble |
